B1: NaKΔ18 (domain or fragment, B. cereus)
chain: WKDKEFQVLFVLTILTLISGTIFYSTVEGLRPIDALYFSVVTLTTVGDGNFSPQTDFGKIFTILYIFIGIGLVFGFIHKLAVNVQLPSILSNRKKE
B2: NaKΔ18 L35A+L61A (domain or fragment, B. cereus, UniProt Q81HW2 19-114, looked up)
chain: WKDKEFQVLFVLTILTAISGTIFYSTVEGLRPIDALYFSVVTATTVGDGNFSPQTDFGKIFTILYIFIGIGLVFGFIHKLAVNVQLPSILSNRKKE
B3: NaKΔ18 L61A (domain or fragment, B. cereus, UniProt Q81HW2 19-114, looked up)
chain: WKDKEFQVLFVLTILTLISGTIFYSTVEGLRPIDALYFSVVTATTVGDGNFSPQTDFGKIFTILYIFIGIGLVFGFIHKLAVNVQLPSILSNRKKE
B4: NaKΔ18 L61T (domain or fragment, B. cereus, UniProt Q81HW2 19-114, looked up)
chain: WKDKEFQVLFVLTILTLISGTIFYSTVEGLRPIDALYFSVVTTTTVGDGNFSPQTDFGKIFTILYIFIGIGLVFGFIHKLAVNVQLPSILSNRKKE
B5: NaKΔ18 L35A (domain or fragment, B. cereus, UniProt Q81HW2 19-114, looked up)
chain: WKDKEFQVLFVLTILTAISGTIFYSTVEGLRPIDALYFSVVTLTTVGDGNFSPQTDFGKIFTILYIFIGIGLVFGFIHKLAVNVQLPSILSNRKKE

Target: the molecule itself
Experiment: SEC

Stoichiometry N, 4:
B1, B2, B3, B4, B5

— publication doi:10.1101/2022.04.18.488652 (bioRxiv, 2022)
